As a reminder, the Kd is the concentration at which binding is half-saturated.

In the assay the target is recombinant IgI3 domain of the S. pyogenes R28 protein (R28-IgI3), wildtype (S. pyogenes) (UniProt Q9XDB6). Briefly: ITC; iTC200, 25 °C, 16 injections of 2.42 µl, 30 mM Tris-HCl, 150 mM NaCl, pH 7.5, 750 rpm, in duplicate; 500 µM rCEACAM-N domains in the syringe, 50 µM rR28-IgI3 (methods).

Take “rCEACAM1-N N97A (from UniProt P13688 34-141) (domain or fragment)”: the Kd is 210 nM.
“rCEACAM1-N Q44A (from UniProt P13688 34-141) (domain or fragment)”: the Kd turned out to be 920 nM.
“rCEACAM1-N Q89A (from UniProt P13688 34-141) (domain or fragment)”: the Kd stood at 687 nM.
Consider “rCEACAM1-N V96A (from UniProt P13688 34-141) (domain or fragment)”, for which the dissociation constant (Kd) is 116 nM.

The values are drawn from article PMC10119177 (2023).
